Molecular target: T1, β-endorphin (Homo sapiens, UniProt P01189)
T1 construct: Human β-endorphin1-31; purchased National Institute on Drug Abuse drug supply system
T1 sequence (P01189 237-267): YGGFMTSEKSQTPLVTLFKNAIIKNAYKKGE
Assay: Insulysin activity determination, disappearance of β-endorphin by HPLC
Assay type: biochemical
Details: 30 μM β-endorphin, 37° C.
Experimental: Materials. […] Solutions were prepared by dissolving the peptide in dimethylsulfoxide (DMSO) to give a stock concentration of 200 μM. The peptide stock was lyophilized and stored at −80° C. until use. The aggregation state of Aβ peptide stock solutions was checked by electron microscopy (Ray et al. (2000) Brain Res 853:344-351) and found to be predominantly, if not exclusively, monomeric. For the in vitro reactions with insulysin, a final concentration of 25 μM Aβ1-40 was obtained after bringing the lyophilized peptide into solution with double distilled water. […] Human β-endorphin1-31, obtained from the National Institute on Drug Abuse drug supply system, was dissolved in water to give a stock solution of 300 μM. Trifluoroacetic acid (Sigma Biochemicals, St. Louis, Mo.) was diluted into water to produce a 5% working solution.
Insulysin activity was assayed by measuring the disappearance of β-endorphin by isocratic reverse phase HPLC (Safavi et al. (1996) Biochemistry 1996 35:14318-14325). A 100 μl reaction mixture containing 40 mM potassium phosphate buffer, pH 7.2, 30 μM β-endorphin, and enzyme was incubated for 15 minutes at 37° C. […] The β-endorphin peak was detected by absorbance at 214 nm using a Waters 484 detector. The reaction was quantitated by measuring the decrease in the β-endorphin peak area.

B1: enzyme purified from a thymoma cell line, EL-4: insulysin enzyme purified from a thymoma cell line, EL-4, used for comparison of specific activity (protein, UniProt Q9JHR7 1-1019, looked up)
Insulin-degrading enzyme: MRNGLVWLLHPALPGTLRSILGARPPPAKRLCGFPKQTYSTMSNPAIQRIEDQIVKSPEDKREYRGLELANGIKVLLISDPTTDKSSAALDVHIGSLSDPPNIPGLSHFCEHMLFLGTKKYPKENEYSQFLSEHAGSSNAFTSGEHTNYYFDVSHEHLEGALDRFAQFFLCPLLDASCKDREVNAVDSEHEKNVMNDAWRLFQLEKATGNPKHPFSKFGTGNKYTLETRPNQEGIDVREELLKFHSTYYSSNLMAICVLGRESLDDLTNLVVKLFSEVENKNVPLPEFPEHPFQEEHLRQLYKIVPIKDIRNLYVTFPIPDLQQYYKSNPGYYLGHLIGHEGPGSLLSELKSKGWVNTLVGGQKEGARGFMFFIINVDLTEEGLLHVEDIILHMFQYIQKLRAEGPQEWVFQECKDLNAVAFRFKDKERPRGYTSKIAGKLHYYPLNGVLTAEYLLEEFRPDLIDMVLDKLRPENVRVAIVSKSFEGKTDRTEQWYGTQYKQEAIPEDVIQKWQNADLNGKFKLPTKNEFIPTNFEILSLEKDATPYPALIKDTAMSKLWFKQDDKFFLPKACLNFEFFSPFAYVDPLHCNMAYLYLELLKDSLNEYAYAAELAGLSYDLQNTIYGMYLSVKRYNDKQPILLKKITEKMATFEIDKKRFEIIKEAYMRSLNNFRAEQPHQHAMYYLRLLMTEVAWTKDELKEALDDVTLPRLKAFIPQLLSRLHIEALLHGNITKQAALGVMQMVEDTLIEHAHTKPLLPSQLVRYREVQLPDRGWFVYQQRNEVHNNCGIEIYYQTDMQSTSENMFLELFCQIISEPCFNTLRTKEQLGYIVFSGPRRANGIQGLRFIIQSEKPPHYLESRVEAFLITMEKAIEDMTEEAFQKHIQALAIRRLDKPKKLSAECAKYWGEIISQQYNYDRDNIEVAYLKTLTKDDIIRFYQEMLAVDAPRRHKVSVHVLAREMDSCPVVGEFPSQNDINLSEAPPLPQPEVIHNMTEFKRGLPLFPLVKPHINFMAAKL
With B1 the specific activity was 3.3 μmols/min/mg.

Source: patent publication US7807396B2, “Insulin degrading enzyme assays for treatment of alzheimer's disease” (University of Kentucky Research Foundation, priority 2000, dated 2010)
